Substrate in the data set: Nc1ccn([C@@H]2O[C@H](COP(=O)(O)OP(=O)(O)OP(=O)(O)O)[C@@H](O)[C@H]2O)c(=O)n1
The data set can be described thus: purified protein. The conditions noted are these: 20 mM glycerol phosphate, 6 mM MgCl2, 20 mM Tris-HCl pH 8, 37°C.

B1: LmGCT (Listeria monocytogenes glycerol 3-phosphate cytidylyltransferase) (Listeria monocytogenes EGD-e) (protein)
chain: MKKVITYGTFDLLHWGHIHLLKRAKALGDYLIVAISSDEFNRIKHKEAYHSYEHRKLIIEAIRYVDEVIPENNWEQKRDDIEKYGIDVFVMGDDWEGEFDFLKDVCEVVYLPRTEGISTSQIKDELK
For the protein B1, the Km amounted to 1520 µM and the kcat came out at 4.15 s⁻¹.

B2: EfGCT (Enterococcus faecalis glycerol 3-phosphate cytidylyltransferase) (Enterococcus faecalis V583) (protein)
chain: MKKILTYGTFDLLHYGHINLLKKAKQQGDYLIVGLSTDAFNLEKKKQSYFSYEKRKQLLEAIRYVDLVIPETSWKQKVSDIAEFKIDTLVMGDDWQGAFDFLEVETTAKVLYLPRTPEVSTTQIKKELYYSE
Turning to B2, the Km is 2420 µM and the kcat stood at 1.51 s⁻¹.

Source of the values: PMC3560613.
